Values of other authors as cited in paper PMC3001128.
Blank lines part the entries; values can stand above or below the substance they belong to.

Key:
[1] = molecular target: CD48 IgV (UniProt P18181)
[2] = molecular target: GITR (Homo sapiens) (UniProt Q9Y5U5)
[3] = molecular target: CD58 IgV (Homo sapiens) (UniProt P19256)
[4] = molecular target: SLAM (CD150) (Homo sapiens) (UniProt Q13291)
[5] = molecular target: NTB-A (Homo sapiens) (UniProt Q96DU3)

Chain of UniProt P18181 (P18181 29-125): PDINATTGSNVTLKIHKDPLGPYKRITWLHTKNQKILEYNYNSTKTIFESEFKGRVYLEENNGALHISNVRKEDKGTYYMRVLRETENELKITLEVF
Chain of UniProt P19256 (P19256 30-121): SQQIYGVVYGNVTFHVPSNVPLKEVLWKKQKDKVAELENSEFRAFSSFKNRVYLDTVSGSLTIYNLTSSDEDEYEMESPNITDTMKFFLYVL
Chain of UniProt Q9Y5U5 (Q9Y5U5 26-241): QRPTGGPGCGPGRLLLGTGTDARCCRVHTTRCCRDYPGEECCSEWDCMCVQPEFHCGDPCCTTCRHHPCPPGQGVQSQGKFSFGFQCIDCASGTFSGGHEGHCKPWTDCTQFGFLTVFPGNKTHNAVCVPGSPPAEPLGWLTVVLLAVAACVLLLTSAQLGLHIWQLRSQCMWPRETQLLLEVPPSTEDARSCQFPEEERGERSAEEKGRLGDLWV

- Kd [1]: 4 µM
Substance: 2B4 IgV (from UniProt Q07763)

- Kd [2]: 0.56 µM
Substance: GITRL (from UniProt Q9UNG2)

- Kd [3]: 10 µM
Substance: CD2 IgV (from UniProt P06729)

- Kd [4]: 200 µM
Substance: SLAM (CD150) (from UniProt Q13291)

- Kd [5]: 2 µM
Substance: NTB-A (from UniProt Q96DU3)
